The values below come from publication PMC5114558, “Reader domain specificity and lysine demethylase-4 family function” (Nature Communications, 2016).

Changes are numbered by the printed parent chain. Names and notes keep the numbering of the source.

For orientation: Kd means the constant that tells how readily two partners part at equilibrium. A low value points to higher affinity.

Assay [1] has as its target T1, H3 (17-32) K23me3 peptide, fluorescein-labelled, P68431.
T1 chain: RKQLATKAARKSAPAT
Description: fluorescence polarization. Conditions: chain shown with the change. On the technique in general: Fluorescence polarisation rises when a labelled molecule tumbles more slowly, as on binding a larger partner.

Assay [2] addresses H3 (17-32) K23me3 peptide, fluorescein-labelled (UniProt P68431). Description: fluorescence polarisation; fluorescein-labelled histone peptide 3 nM, KDM4 DTD titrated 0.1-100 μM; 30 mM HEPES, 150 mM NaCl pH 7.4, 0.01% Triton X-100.

B1: KDM4A double tudor domain (KDM4A-DTD), HaloTag-tagged, wild type, O75164 N931D; D939R; D945R (protein)
chain: ALQSITAGQKVISKHKNGRFYQCEVVRLTTETFYEVDFDDGSFSRNLYPERIVSQDCLQFGPPAEGEVVQVRWTDGQVYGAKFVASHPIQMYQVEFEDGSQLVVKRDDVYTLDEELP
In turn, B1 yielded an equilibrium dissociation constant (Kd) in assay [1] of 3.1 µM.

B2: KDM4A-DTD N931D (domain or fragment)
chain: B1 chain with R45D, R51D
As to B2, the Kd in assay [2] was 0.85 µM.

B3: KDM4A-DTD Y973A (aromatic cage substitution) (domain or fragment)
chain: B1 chain with D37N, R45D, R51D, Y79A
For the molecule B3, the equilibrium dissociation constant (Kd) in assay [2] stood at 285 µM.

B4: KDM4A-DTD N931R (domain or fragment)
chain: B1 chain with D37R, R45D, R51D
For B4, the Kd in assay [2] came out at 73.9 µM.

B5: KDM4A-DTD N940A (domain or fragment)
chain: B1 chain with D37N, R45D, N46A, R51D
B5: the Kd in assay [2] was determined as 57.4 µM.
